Assay results: publication PMC7794386, “Mechanism of filament formation in UPA-promoted CARD8 and NLRP1 inflammasomes” (Nature Communications, 2021)

B1: caspase-1^CARD (1-95, G20K), as it stands in the fusion m16 (domain or fragment, UniProt P29466 1-95, looked up)
chain: MADKVLKEKRKLFIRSMGEKTINGLLDELLQTRVLNKEEMEKVKRENATVMDKTRALIDSVIPKGAQACQICITYICEEDSYLAGTLGLSADQTS
notes: caspase-1, CARD, residues 1-95, type IIb mutant G20K; Joined on one chain with m17 through a 5x GSS linker; source: E. coli BL21 (DE3), purified as part of the fusion protein m16

Legend:
[1] = target: CARD8^CARD (P446-L537, A452C), MBP tag cleaved (human) (UniProt Q9Y2G2); test: negative stain EM of filament formation; purified MBP-fused protein cleaved with 3C protease for 3 h at 37 °C at different concentrations (0.1 to 30 µM), then negatively stained with 1% uranyl formate and imaged
[2] = target: the molecule itself; test: SEC; preparative SEC of amylose-purified His-MBP fusions (Superdex 200 for MBP-CARD, Superose 6 for MBP-UPA and MBP-NLRP1-CT); 25 mM Tris-HCl pH 7.5, 150 mM NaCl, 1 mM TCEP
[3] = target: the molecule itself; test: cryo-EM structure; ASC^CARD-caspase-1^CARD octamer; 25 mM Tris-HCl pH 8.0, 150 mM NaCl, 2 mM DTT; 3.9 Å map
[4] = target: B1; test: as above; settings: both partners purified
[5] = target: the molecule itself; test: SEC-MALS; Superdex 200 in 25 mM Tris-HCl pH 8.0, 150 mM NaCl, 2 mM DTT, three-angle light scattering and refractive index detectors, 0.5 mL/min

Molecule	binding result [2]	binding result [3]	also measured
CARD8^CARD (P446-L537, A452C), MBP tag cleaved (from UniProt Q9Y2G2-5 446-537) (domain or fragment)			minimum concentration required to form filaments [1]: 15 µM
NLRP1 His-MBP-3C-UPA (S1213-P1364), uncleaved (domain or fragment, human, UniProt Q9C000-1 1213-1364, looked up, NLRP1, human, UPA S1213-P1364, isoform 1 (UniProt Q9C000-1); also called oligomeric MBP-UPA protein; source: E. coli BL21 (DE3), purified (amylose resin, Superose 6); not shown: His, N-terminal, kept; MBP, N-terminal, kept) SPLGVLLKMIHNALRFIPVTSVVLLYHRVHPEEVTFHLYLIPSDCSIRKAIDDLEMKFQFVRIHKPPPLTPLYMGCRYTVSGSGSGMLEILPKELELCYRSPGEDQLFSEFYVGHLGSGIRLQVKDKKDETLVWEALVKPGDLMPATTLIPP	binds		
CARD8 His-MBP-3C-UPA (S297-P446), uncleaved (domain or fragment, human, UniProt Q9Y2G2-5 297-446, looked up, CARD8, human, UPA S297-P446; numbers count on: T60 isoform, UniProt Q9Y2G2-5; Made by a stop codon in the CARD8 His-MBP-3C-UPA-CARD plasmid; also called oligomeric MBP-UPA protein; source: E. coli BL21 (DE3), purified (amylose resin, Superose 6); not shown: His, N-terminal, kept; MBP, N-terminal, kept) SLMGILLRIASGTRLSIPITSNTLIYYHPHPEDIKFHLYLVPSDALLTKAIDDEEDRFHGVRLQTSPPMEPLNFGSSYIVSNSANLKVMPKELKLSYRSPGEIQHFSKFYAGQMKEPIQLEITEKRHGTLVWDTEVKPVDLQLVAASAPP	binds		
B1		binds	
ASC^CARD (106-195, W169G), as it stands in the fusion m16 (domain or fragment, UniProt Q9ULZ3 106-195, looked up, ASC (apoptosis-associated speck-like protein containing a CARD), CARD, residues 106-195, type IIa mutant W169G; Joined on one chain with m18 through a 5x GSS linker; source: E. coli BL21 (DE3), purified as part of the fusion protein m16) SAAKPGLHFIDQHRAALIARVTNVEWLLDALYGKVLTDEQYQAVRAEPTNPSKMRKLFSFTPAGNWTCKDLLLQALRESQSYLVEDLERS		binds	binding result [4]: binds
ASC^CARD (106-195, W169G)-5xGSS-caspase-1^CARD (1-95, G20K) fusion protein (other, ASC (apoptosis-associated speck-like protein containing a CARD), CARD, residues 106-195, type IIa mutant W169G; 5x GSS linker, written out from the printed '5XGSS'; caspase-1, CARD, residues 1-95, type IIb mutant G20K; Four fusion chains form an octamer of CARDs; also called ASC^CARD-caspase-1^CARD octamer; ASC^CARD-caspase-1^CARD fusion protein; source: E. coli BL21 (DE3), purified (Ni-NTA, TEV …)) SAAKPGLHFIDQHRAALIARVTNVEWLLDALYGKVLTDEQYQAVRAEPTNPSKMRKLFSFTPAGNWTCKDLLLQALRESQSYLVEDLERSGSSGSSGSSGSSGSSMADKVLKEKRKLFIRSMGEKTINGLLDELLQTRVLNKEEMEKVKRENATVMDKTRALIDSVIPKGAQACQICITYICEEDSYLAGTLGLSADQTS			stoichiometry N [5]: 4
